# T1: METTL7A (TMT1A1; N-GST-METTL7A) (Homo sapiens, UniProt Q9H8H3)
# T1 sequence (Q9H8H3 1-244): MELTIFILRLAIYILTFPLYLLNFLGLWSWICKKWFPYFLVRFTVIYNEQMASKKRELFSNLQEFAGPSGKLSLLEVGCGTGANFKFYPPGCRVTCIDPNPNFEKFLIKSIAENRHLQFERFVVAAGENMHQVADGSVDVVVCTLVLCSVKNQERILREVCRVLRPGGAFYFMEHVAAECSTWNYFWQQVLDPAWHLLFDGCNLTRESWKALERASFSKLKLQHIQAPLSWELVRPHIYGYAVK
# B1: METTL7A (TMT1A1; N-GST-METTL7A) (Homo sapiens) (protein)
# chain: T1 sequence (Q9H8H3 1-244)
# B2: METTL7B (TMT1B1; N-GST-METTL7B) (Homo sapiens) (protein)
# chain: MDILVPLLQLLVLLLTLPLHLMALLGCWQPLCKSYFPYLMAVLTPKSNRKMESKKRELFSQIKGLTGASGKVALLELGCGTGANFQFYPPGCRVTCLDPNPHFEKFLTKSMAENRHLQYERFVVAPGEDMRQLADGSMDVVVCTLVLCSVQSPRKVLQEVRRVLRPGGVLFFWEHVAEPYGSWAFMWQQVFEPTWKHIGDGCCLTRETWKDLENAQFSEIQMERQPPPLKWLPVGPHIMGKAVK
# Key:
# [1] = biological target: T1, METTL7A (TMT1A1; N-GST-METTL7A); test: TSL S-methylation, TMSL formation by LC-MS/MS, single time-point; format: biochemical
# [2] = biological target: T1, METTL7A (TMT1A1; N-GST-METTL7A); test: as above; format: biochemical; remark: listed apart in the source
# purified protein [3] = substrate: C[S+](CC[C@H](N)C(=O)O)C[C@H]1O[C@@H](n2cnc3c(N)ncnc32)[C@H](O)[C@@H]1O; test: purified protein; details: 250 µM TSL (saturating), DMPG, pH 7.0, 37 °C, varied: cofactor
# purified protein [4] = substrate: C[C@]12CCC(=O)C=C1C[C@@H](S)[C@@H]1[C@@H]2CC[C@@]2(C)[C@H]1CC[C@@]21CCC(=O)O1; test: purified protein; details: 100 µM SAM, DMPG, pH 7.0, 37 °C
molecule,measurement,setting,value
"CC(N)c1cccc(Cl)c1Cl (stereo not drawn) [DCMB, 2,3-dichloro-α-methylbenzylamine]",IC50,[1],1.17 µM
Nc1ncnc2c1ncn2[C@@H]1O[C@H](CSCC[C@H](N)C(=O)O)[C@@H](O)[C@H]1O [SAH],Ki,[2],53.9 µM
B1,Km,purified protein [3],53.73 µM
same,Km,purified protein [4],39.4 µM
B2,Km,purified protein [4],32.5 µM

# From article doi:10.1101/2022.10.12.511968v1 (biorxiv, 2022)
